Substitutions are numbered along the chain they refer to. Where two headings read alike, the source gives them in different places.
T1: Human IL-18 (human, UniProt Q14116 37-193)
T1 sequence: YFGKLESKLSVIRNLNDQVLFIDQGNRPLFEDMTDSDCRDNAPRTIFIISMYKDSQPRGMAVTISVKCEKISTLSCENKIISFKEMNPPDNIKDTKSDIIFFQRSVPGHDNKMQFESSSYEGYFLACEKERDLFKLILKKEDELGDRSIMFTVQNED

T2: Cynomolgus monkey IL-18 (Rhesus monkey (identical to cynomolgus …, UniProt Q9BGI5 37-193))
T2 sequence: T1 sequence with V11I, S50N, T63A, K79R, F134Y, E141K

T3: Human IL-23 (human, UniProt Q9NPF7 20-189; P29460 23-328)
T3 sequence 1: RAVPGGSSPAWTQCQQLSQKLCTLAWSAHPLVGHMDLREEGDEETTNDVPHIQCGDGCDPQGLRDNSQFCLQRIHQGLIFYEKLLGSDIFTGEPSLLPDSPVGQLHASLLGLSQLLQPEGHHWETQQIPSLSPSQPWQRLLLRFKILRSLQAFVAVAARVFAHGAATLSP
T3 sequence 2: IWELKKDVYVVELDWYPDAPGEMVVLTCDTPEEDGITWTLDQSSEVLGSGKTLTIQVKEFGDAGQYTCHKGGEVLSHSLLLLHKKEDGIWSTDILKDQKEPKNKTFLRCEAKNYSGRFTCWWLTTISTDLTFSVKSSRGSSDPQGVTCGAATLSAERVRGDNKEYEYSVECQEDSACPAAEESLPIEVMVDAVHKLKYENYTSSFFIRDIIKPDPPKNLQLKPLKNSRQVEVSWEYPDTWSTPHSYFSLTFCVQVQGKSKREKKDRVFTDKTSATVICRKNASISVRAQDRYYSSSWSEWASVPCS

B1: IL-18 control 2 (antibody, V domains shown)
VH: QVQLVQSGAEVKKPGASVKVSCKVSGEISTGYYFHWVRQAPGKGLEWMGRIDPEDDSTKYAERFKDRVTMTEDTSTDTAYMELSSLRSEDTAVYYCTTWRIYRDSSGRPFYVMDAWGQGTLVTVSS
VL: DIQMTQSPSSVSASVGDRVTITCLASEDIYTYLTWYQQKPGKAPKLLIYGANKLQDGVPSRFSGSGSGTDYTLTISSLQPEDFATYYCLQGSKFPLTFGQGTKLEIK
B2: Heterodimeric bsAb 1 (bispecific antibody, human IgG1, kappa)
heavy 1: QVQLVQSGAEVKKPGASVKVSCKVSGEISTGYYFHWVRQAPGKGLEWMGRIDPEDDSTKYAERFKDRVTMTEDTSTDTAYMELSSLRSEDTAVYYCTTWRIYRDSSGRPFYVMDAWGQGTLVTVSSASTKGPSVFPLAPSSKSTSGGTAALGCEVTDYFPEPVTVSWNSGALTSGVHTFPAVLESSGLYSLSSVVTVPSSSLGTQTYICNVNHKPSNTKVDKKVEPKSCDKTHTCPPCPAPELAGAPSVFLFPPKPKDTLMISRTPEVTCVVVDVSHEDPEVKFNWYVDGVEVHNAKTKPREEQYNSTYRVVSVLTVLHQDWLNGKEYKCKVSNKALPAPIEKTISKAKGQPREPQVYVYPPSRDELTKNQVSLTCLVKGFYPSDIAVEWESNGQPENNYKTTPPVLDSDGSFALVSKLTVDKSRWQQGNVFSCSVMHEALHNHYTQKSLSLSPGK
light 1: DIQMTQSPSSVSASVGDRVTITCLASEDIYTYLTWYQQKPGKAPKLLIYGANKLQDGVPSRFSGSGSGTDYTLTISSLQPEDFATYYCLQGSKFPLTFGQGTKLEIKRTVAAPSVFIFPPSDERLKSGTASVVCLLNNFYPREAKVQWKVDNALQSGNSQESVTEQDSKDSTYSLSSRLTLSKADYEKHKVYACEVTHQGLSSPVTKSFNRGEC
heavy 2: QVQLVQSGAEVKKPGSSVKVSCKASGYTFTDQTIHWMRQAPGQGLEWIGYIYPRDDSPKYNENFKGKVTITADKSTSTAYMELSSLRSEDTAVYYCAIPDRSGYAWFIYWGQGTLVTVSSASTKGPSVFPLAPSSKSTSGGTAALGCRVKDYFPEPVTVSWNSGALTSGVHTFPAVLQSSGLYSLSSVVTVPSSSLGTQTYICNVNHKPSNTKVDKKVEPKSCDKTHTCPPCPAPELAGAPSVFLFPPKPKDTLMISRTPEVTCVVVDVSHEDPEVKFNWYVDGVEVHNAKTKPREEQYNSTYRVVSVLTVLHQDWLNGKEYKCKVSNKALPAPIEKTISKAKGQPREPQVYVLPPSRDELTKNQVSLLCLVKGFYPSDIAVEWESNGQPENNYLTWPPVLDSDGSFFLYSKLTVDKSRWQQGNVFSCSVMHEALHNHYTQKSLSLSPGK
light 2: DIQMTQSPSSLSASVGDRVTITCKASRDVAIAVAWYQQKPGKVPKLLIYWASTRHTGVPSRFSGSGSRTDFTLTISSLQPEDVADYFCHQYSSYPFTFGSGTKLEIKRTVAAPSVFIFPPSDEELKSGTASVECLLNNFYPREAKVQWKVDNALQSGNSQESVTEQDSKDSTYSLSSTLTLSKADYEKHKVYACEVTHQGLSSPVTKSFNRGEC
notes: Het-mAb format: anti-IL-18 mAb on ZA and anti-IL-23 mAb (risankizumab) on ZB, with Fc heterodimerisation and silencing mutations; Expressed transiently in HEK293 6E cells
B3: Heterodimeric bsAb 2 (bispecific antibody, human IgG1, kappa)
heavy 1: QVQLVQSGAEVKKPGSSVKVSCKASGYTFTDQTIHWMRQAPGQGLEWIGYIYPRDDSPKYNENFKGKVTITADKSTSTAYMELSSLRSEDTAVYYCAIPDRSGYAWFIYWGQGTLVTVSSASTKGPSVFPLAPSSKSTSGGTAALGCRVKDYFPEPVTVSWNSGALTSGVHTFPAVLQSSGLYSLSSVVTVPSSSLGTQTYICNVNHKPSNTKVDKKVEPKSCDKTHTCPPCP
light 1: B2 light 2
heavy 2: B2 heavy 1 with Y360L, T375L, K401L, T403W, A414F, V416Y
light 2: B2 light 1
notes: Het-mAb format: anti-IL-23 mAb (risankizumab) on ZA and anti-IL-18 mAb on ZB, with Fc heterodimerisation and silencing mutations
B4: Heterodimeric bsAb 3 (bispecific antibody, human IgG1, kappa)
heavy 1: B2 heavy 1
light 1: B2 light 1
heavy 2: QVQLVQSGAEVKKPGASVKVSCKASGYIFITYWMTWVRQAPGQGLEWMGQIFPASGSADYNEKFEGRVTMTTDTSTSTAYMELRSLRSDDTAVYYCARGGGGFAYWGQGTLVTVSSASTKGPSVFPLAPSSKSTSGGTAALGCRVKDYFPEPVTVSWNSGALTSGVHTFPAVLQSSGLYSLSSVVTVPSSSLGTQTYICNVNHKPSNTKVDKKVEPKSCDKTHTCPPCPAPELAGAPSVFLFPPKPKDTLMISRTPEVTCVVVDVSHEDPEVKFNWYVDGVEVHNAKTKPREEQYNSTYRVVSVLTVLHQDWLNGKEYKCKVSNKALPAPIEKTISKAKGQPREPQVYVLPPSRDELTKNQVSLLCLVKGFYPSDIAVEWESNGQPENNYLTWPPVLDSDGSFFLYSKLTVDKSRWQQGNVFSCSVMHEALHNHYTQKSLSLSPGK
light 2: DIQMTQSPSSLSASVGDRVTITCRTSENIYSYLAWYQQKPGKAPKLLIYNAKTLAEGVPSRFSGSGSGTDFTLTISSLQPEDFATYYCQHHYGIPFTFGQGTKVEIKRTVAAPSVFIFPPSDEELKSGTASVECLLNNFYPREAKVQWKVDNALQSGNSQESVTEQDSKDSTYSLSSTLTLSKADYEKHKVYACEVTHQGLSSPVTKSFNRGEC
notes: Het-mAb format: anti-IL-18 mAb on ZA and anti-IL-23 mAb (tildrakizumab) on ZB, with Fc heterodimerisation and silencing mutations

Tests used:
Human IL-18 [1] = target: T1, Human IL-18; test: cell-based or functional assay
Human IL-18 [2] = target: T1, Human IL-18; test: cell-based or functional assay; remark: listed apart in the source
Cynomolgus monkey IL-18 = target: T2, Cynomolgus monkey IL-18; test: cell-based or functional assay
Human IL-18 [3] = target: T1, Human IL-18; test: cell-based or functional assay; remark: listed apart in the source
Human IL-23 [4] = target: T3, Human IL-23; test: cell-based or functional assay
Human IL-23 [5] = target: T3, Human IL-23; test: cell-based or functional assay; remark: listed apart in the source
Human IL-18 [6] = target: T1, Human IL-18; test: SPR (Biacore), antibody captured on Protein A/G, cytokine as analyte, 25 C, 1:1 fit, n=1
Description: (§1) A heterodimeric bsAb, alongside anti-IL-18 and anti-IL-23 common light chain control bispecific antibodies, were assessed for binding to human and cyno IL-18 and IL-23, using the Biacore 8K and T200 (Cytiva) surface plasmon resonance (SPR) instruments. All reagents were generated recombinantly in-house with the exception of Rhesus monkey IL-18 which was purchased from R&D systems (Cat #2548-RM-025/CF). Rhesus and cynomolgus monkey amino acid sequences are identical. Therefore, the protein will be referred to as cynomolgus monkey IL-18.
(§2) Heterodimeric bsAb, anti-IL-18 and anti-IL-23 common light chain bispecific control molecules were assessed for binding to recombinant human and cynomolgus monkey IL-18 and IL-23 using the Biacore 8K and T200 (Cytiva) SPR instruments. The antibodies were captured onto Protein A/G, which was immobilised onto flow cell 2 of 8 channels (Biacore 8K) or flow cells 2, 3 and 4 (Biacore T200) of a CM5 series S sensor chip by primary amine coupling. The IL-18 or IL-23 analytes were passed over the captured antibodies at varying concentrations between 0.04-25 nM. The association phase was for 240 seconds at 30 μl/min, followed by a dissociation step of up to 1200 seconds. A 0 nM (i.e., buffer alone) injection was used to double reference the binding curves. Regeneration of the chip surface between cycles was carried out using 50 mM NaOH. The assay was run at 25° C. in HBS-EP⁺ buffer. Biacore 8K control software version 3.0 was used to run the experiment. Data was analysed using Biacore 8K Insight evaluation software version 3.0. Biacore T200 control software version 1.0 was used to run the experiment. Data was analysed using Biacore T200 evaluation software version 2.0. Affinities and kinetics were determined using the 1:1 kinetic fit inherent to the software where possible. All affinity values generated using both instruments were combined to determine geometric mean values.

Human IL-23 [7] = target: T3, Human IL-23; test: as above
Description: as §1, §2

Row | Binder | IC50 (pM, Mean), neutralisation of human IL-18-induced IFNγ secretion by KG-1 cells (Human IL-18 [1]) [pM] | pIC50 (GeoMean), neutralisation of human IL-18-induced IFNγ secretion by KG-1 cells (Human IL-18 [1]) | IC50 (pM, Mean), neutralisation of human IL-18-induced IFNγ secretion by KG-1 cells (Human IL-18 [2]) [pM] | pIC50 (GeoMean), neutralisation of human IL-18-induced IFNγ secretion by KG-1 cells (Human IL-18 [2]) | IC50 (pM, Mean), neutralisation of cynomolgus IL-18-induced IFNγ secretion by KG-1 cells (Cynomolgus monkey IL-18) [pM] | pIC50 (GeoMean), neutralisation of cynomolgus IL-18-induced IFNγ secretion by KG-1 cells (Cynomolgus monkey IL-18) | IC50 Heterodimeric bsAbs (% of Parent IL-18 control 3), LPS + IL12-induced IFN-γ in human whole blood (Human IL-18 [3]) | IC50 Heterodimeric bsAbs (nM), inhibition of LPS + IL12-induced IFN-γ in human whole blood (Human IL-18 [3]) [nM] | IC50 Heterodimeric bsAbs (% of Parent IL-23 control 2), IL-23-induced pSTAT3 in T cells of human whole blood (Human IL-23 [4]) | IC50 Heterodimeric bsAbs (pM), inhibition of IL-23-induced pSTAT3 in CD3+CD161+ T cells of human whole blood (Human IL-23 [4]) [pM] | IC50 Heterodimeric bsAb (% of Parent IL-23 control 2), IL-23-induced mouse IL-17A in mouse splenocytes (Human IL-23 [5]) | IC50 Heterodimeric bsAb (pM), inhibition of human IL-23-induced mouse IL-17A secretion in mouse splenocytes (Human IL-23 [5]) [pM] | Kd (Human IL-18 [6]) [nM] | Kd (Human IL-23 [7]) [nM] | IC50 Heterodimeric bsAbs (% of Parent IL-23 control 3), IL-23-induced pSTAT3 in T cells of human whole blood (Human IL-23 [4]) | IC50 Heterodimeric bsAb (% of Parent IL-23 control 3), IL-23-induced mouse IL-17A in mouse splenocytes (Human IL-23 [5])
1 | B1 | 41 | 10.4 | 39.8 | 10.4 | 64.6 | 10.2 | – | – | – | – | – | – | – | – | – | –
2 | B2 | 133 | 9.88 | – | – | – | – | 191 % of Parent | 16 | 218 % of Parent | 615 | 254 % of Parent | 153 | < 0.01 | 0.374 | – | –
3 | B3 | 77.6 | 10.1 | – | – | – | – | 240 % of Parent | 18.2 | 249 % of Parent | 711 | 274 % of Parent | 147 | < 0.01 | 0.158 | – | –
4 | B4 | 105 | 9.98 | – | – | – | – | 280 % of Parent | 21.7 | – | 640 | – | 2670 | < 0.01 | 0.499 | 100 % of Parent | 387 % of Parent

From patent publication US20260226152A1 (GlaxoSmithKline, published 2026)
